No end group written: not given here. *: point of attachment. Biotin = O=C1N[C@H]2[C@H](CS[C@H]2CCCCC(=O)*)N1
T1: prohibitin (Homo sapiens, UniProt P35232)
T1 construct: gift from Dr. Srikumar Chellappan (H. Lee Moffitt Cancer Center & Research Institute)
T1 sequence (P35232 1-272): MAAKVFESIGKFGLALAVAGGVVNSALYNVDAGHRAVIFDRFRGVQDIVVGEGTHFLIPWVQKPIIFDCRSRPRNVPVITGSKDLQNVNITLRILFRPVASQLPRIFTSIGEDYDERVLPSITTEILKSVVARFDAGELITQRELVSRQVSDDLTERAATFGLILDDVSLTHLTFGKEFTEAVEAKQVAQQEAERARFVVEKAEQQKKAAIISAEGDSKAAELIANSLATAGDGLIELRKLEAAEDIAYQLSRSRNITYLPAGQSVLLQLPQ

T2: PR-3 (Homo sapiens, UniProt P24158)
T2 construct: purchased Sigma
T2 sequence (P24158 28-248 limits assumed): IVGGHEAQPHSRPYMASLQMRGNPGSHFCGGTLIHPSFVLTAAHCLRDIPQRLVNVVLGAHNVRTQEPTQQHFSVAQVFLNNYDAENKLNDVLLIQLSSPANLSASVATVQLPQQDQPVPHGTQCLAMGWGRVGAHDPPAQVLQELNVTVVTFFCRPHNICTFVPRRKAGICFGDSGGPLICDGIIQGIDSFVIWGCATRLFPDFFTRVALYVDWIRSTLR

T3: ANXAS (Homo sapiens, UniProt P08758)
T3 construct: purchased AmProx
T3 sequence (P08758 1-320): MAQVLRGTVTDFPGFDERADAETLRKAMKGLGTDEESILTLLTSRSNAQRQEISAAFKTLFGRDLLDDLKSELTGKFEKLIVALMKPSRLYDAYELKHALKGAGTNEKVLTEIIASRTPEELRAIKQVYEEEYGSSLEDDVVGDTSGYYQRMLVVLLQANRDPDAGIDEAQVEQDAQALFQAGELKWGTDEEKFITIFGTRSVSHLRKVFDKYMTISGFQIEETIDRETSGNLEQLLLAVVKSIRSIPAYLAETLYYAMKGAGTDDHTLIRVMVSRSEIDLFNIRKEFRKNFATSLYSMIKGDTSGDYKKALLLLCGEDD

T4: His6-ANXA5 (UniProt P08758 1-320, limits assumed)
T4 construct: also called ANXAS (so in the source); control His6-ANXAS; not shown: His6 tag
T4 sequence (looked up): T3 sequence (P08758 1-320)

B1: negative control peptide CARAC (peptide)
peptide: Biotin-CARAC
modifications: also: cyclized, type and places not given here
notes: Negative control on monoavidin beads; also called control elution peptide
B2: GST-prohibitin (other, UniProt P35232 1-272, looked up)
chain: T1 sequence (P35232 1-272)
notes: Gift from Dr. Srikumar Chellappan; also called recombinant GST-prohibitin; glutathione S-transferase (GST)-conjugated protein; not shown: glutathione S-transferase (GST) tag
B3: human leukocyte proteinase-3 (PR-3) (enzyme)
chain: IVGGHEAQPHSRPYMASLQMRGNPGSHFCGGTLIHPSFVLTAPHCLRDIPQRLVNVVLGAHNVRTQEPTQQHFSVAQVFLNNYDAENKLNDILLIQLSSPANLSASVTSVQLPQQDQPVPPHGTQCLAMGWGRVGAHDPPAQVLQELNVTVVTFFCRPHNICTFVPRRKAGICCFGDSGGPLICDGIIQGIDSFVIWGCATRLFPDFFTRVAYDWIRSTLR
notes: In the ELISAs the PR-3 was bought (Sigma); also called active PR-3; endogenous PR-3

Tests used:
[1] = biological target: T1, prohibitin; test: Phage binding assay on immobilized prohibitin; details: increasing concentrations of synthetic peptide (FIG. 3B)
Protocol: (§1) Phage Binding Assays. Binding of targeted phage to immobilized candidate receptors was evaluated as described (Kolonin et al., 2006b). Micro-wells of 96-well plates were blocked with phosphate-buffered saline (PBS) containing 3% BSA, washed, and incubated with 10^9 TU of targeted phage. Inhibition of phage binding was performed in the presence of increasing concentrations of synthetic peptides, as indicated. For phage display screening on immobilized prohibitin, 10^9 TU of phage clones recovered from the second round of in vivo selection were incubated ON with 1 μg of immobilized recombinant GST-prohibitin. Bound phage were recovered by infection of host bacteria (E. coli K91 Kan).

[2] = tested on: cells of mouse WAT vasculature; details: previous research (Kolonin et al., 2004); cited from earlier work
[3] = biological target: T2, PR-3; test: Phage binding competition assay, targeted phage and cognate synthetic peptide; details: FIG. 4E
Protocol: as §1

[4] = biological target: T5, ANXA2 (Homo sapiens, UniProt P07355); test: Capture of GST-prohibitin with immobilized His6-ANXA2; format: binding; details: recombinant GST-conjugated protein (FIG. 3E)
T5 construct: purchased AmProx
Protocol: (§2) Protein Binding Assays. Titration of anti-peptide antibodies was performed on Maxisorb Immunoplates (Nunc) coated with 1 μg/mL of peptides or proteins. Incubation with primary antibodies was followed by signal detection with goat anti-rabbit HRP-conjugated IgG (Sigma-Aldrich; St. Louis, Mo.) and 3, 3′,5,5′-tetramethylbenzidine (TMB) (Calbiochem). To evaluate protein-protein interactions, the inventors performed ELISA on 96-well plates coated with 1 μg/mL of recombinant candidate receptors, as indicated. Blocking of exposed non-specific binding sites was performed with PBS containing either 2% gelatin or 1% BSA, as indicated. Ligand candidates were added to the wells at different concentrations, as indicated. Specific binding was detected by incubation with appropriate primary and secondary antibodies. For capture experiments, immobilized His6-ANXA2 and ANXAS were incubated with recombinant GST-prohibitin. Protein interaction, assessed by immunoblotting with anti-GST antibody, was detected with anti-rabbit or anti-goat secondary alkaline phosphatase-conjugated polyclonal antibodies.

[5] = biological target: T3, ANXAS; test: Capture of GST-prohibitin with immobilized control His6-ANXAS; format: binding; details: recombinant GST-conjugated protein (FIG. 3E)
Protocol: as §2

[6] = biological target: B3; test: affinity capture on monoavidin beads loaded with biotinylated peptide, from a membrane extract of human bone marrow cells; SDS-PAGE
Source text: (B) Liquid chromatography-mass spectrometry (LC-MS/MS) of peptides matching the candidate receptor PR-3. Peptides identified are underlined. […] Arrow: ˜35 kDa band specific to the RAGE-like peptides.

[7] = biological target: T4, His6-ANXA5; test: capture of GST-prohibitin on immobilized His6-annexin, immunoblot with anti-GST antibody
[8] = biological target: T6, BMPRIA-Fc (UniProt P36894 24-152); test: ELISA on immobilized PR-3
T6 construct: Bought (R&D Systems); control protein; also called Fc-BMPRIA; not shown: Fc tag

[9] = biological target: T7, BSA (bovine, UniProt P02769 25-607); test: ELISA on immobilized PR-3
T7 construct: Control protein added to immobilized PR-3; also called bovine serum albumin; control protein
T7 sequence (P02769 25-607 limits assumed): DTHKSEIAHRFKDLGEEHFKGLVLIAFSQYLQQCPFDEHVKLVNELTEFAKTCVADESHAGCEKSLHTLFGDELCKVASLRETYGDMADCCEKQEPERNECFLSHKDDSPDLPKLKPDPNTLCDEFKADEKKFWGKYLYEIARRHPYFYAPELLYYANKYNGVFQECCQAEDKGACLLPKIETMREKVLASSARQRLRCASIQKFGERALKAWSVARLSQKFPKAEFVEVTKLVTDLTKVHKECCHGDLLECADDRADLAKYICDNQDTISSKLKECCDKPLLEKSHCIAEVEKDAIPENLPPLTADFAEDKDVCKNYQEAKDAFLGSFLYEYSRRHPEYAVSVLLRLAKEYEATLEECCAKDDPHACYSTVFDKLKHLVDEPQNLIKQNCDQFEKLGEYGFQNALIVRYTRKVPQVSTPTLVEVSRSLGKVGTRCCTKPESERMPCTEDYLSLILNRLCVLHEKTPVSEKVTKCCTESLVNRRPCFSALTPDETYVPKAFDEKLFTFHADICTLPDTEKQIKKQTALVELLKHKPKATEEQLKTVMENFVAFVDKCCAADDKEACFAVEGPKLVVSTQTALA

T5 sequence (P07355 whole entry): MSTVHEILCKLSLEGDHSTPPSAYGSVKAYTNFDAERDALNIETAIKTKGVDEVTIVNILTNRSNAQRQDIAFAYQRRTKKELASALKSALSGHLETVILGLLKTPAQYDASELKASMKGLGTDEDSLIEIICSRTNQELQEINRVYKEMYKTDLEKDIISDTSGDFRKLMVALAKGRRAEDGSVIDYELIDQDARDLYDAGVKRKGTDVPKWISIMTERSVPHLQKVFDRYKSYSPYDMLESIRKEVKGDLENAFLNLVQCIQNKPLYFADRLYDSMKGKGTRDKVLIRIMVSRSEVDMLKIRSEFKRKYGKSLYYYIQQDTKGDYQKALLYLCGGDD
T6 sequence (P36894 24-152): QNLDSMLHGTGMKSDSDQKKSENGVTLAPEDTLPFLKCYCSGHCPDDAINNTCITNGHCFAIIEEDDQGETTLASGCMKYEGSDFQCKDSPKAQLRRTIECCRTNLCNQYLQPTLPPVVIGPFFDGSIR

Molecule: CKGGRAKDC
- inhibition of CKGGRAKDC-displaying phage binding to prohibitin by synthetic peptide [1]: specifically inhibited in a concentration-dependent manner
- localization and internalization in WAT vasculature [2]: localized to and internalized by cells of mouse WAT vasculature

Molecule: CWELGGGPC
- inhibition of CWELGGGPC-phage binding by synthetic peptide [3]: specifically inhibited

Molecule: prohibitin: recombinant glutathione S-transferase (GST)-conjugated prohibitin
- binding of prohibitin to ANXA2 [4]: binds to ANXA2
- binding of prohibitin to control protein ANXAS [5]: not to the control protein ANXAS

Molecule: B1
- binding result [6]: no binding

Molecule: B2
- binding result [7]: no binding

Molecule: B3
- binding result [8]: no binding
- binding result [9]: no binding

— patent publication US20140356285A1, “COMPOSITIONS AND METHODS RELATED TO TISSUE TARGETING” (THE BOARD OF REGENTS OF THE UNIVERSITY OF TEXAS SYSTEM, priority 2011, published 2014)
